Measurements taken from patent US20190016816A1 (APTEVO RESEARCH AND DEVELOPMENT, published 2019).

Tests used:
human CD137 on cells [1] = molecular target: T1, human CD137 on cells (human, UniProt Q07011 24-255); test: cell-based or functional assay
human 5T4 on cells [2] = molecular target: T2, human 5T4 on cells (human, UniProt Q13641 32-420); test: cell-based or functional assay
T2 sequence: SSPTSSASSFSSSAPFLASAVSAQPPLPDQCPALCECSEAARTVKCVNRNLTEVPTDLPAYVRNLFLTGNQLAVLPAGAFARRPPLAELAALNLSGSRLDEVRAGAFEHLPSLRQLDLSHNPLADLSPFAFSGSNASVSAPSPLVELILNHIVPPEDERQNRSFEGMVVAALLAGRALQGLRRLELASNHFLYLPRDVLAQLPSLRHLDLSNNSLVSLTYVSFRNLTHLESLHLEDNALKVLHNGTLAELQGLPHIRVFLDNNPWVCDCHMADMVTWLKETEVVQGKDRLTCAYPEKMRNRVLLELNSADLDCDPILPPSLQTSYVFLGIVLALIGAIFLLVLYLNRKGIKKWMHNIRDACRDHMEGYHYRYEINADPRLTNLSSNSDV

FcγRIIIa (CD16a Val158) = molecular target: T3, FcγRIIIa (CD16a Val158) (UniProt P08637 17-254, limits assumed); test: flow cytometry, CHO cells stably expressing CD16a Val158, fluorescent anti-human IgG secondary, MFI (mean)
T3 construct: whole, on cells; allotype Val158 as printed
Excerpt: ALG.APV-210 contains mutations introduced to prevent interaction with Fcγ receptors (FcγR) that could lead to FcγR-mediated T-cell activation or ADCC, ADCP, CDC etc. Binding of ALG.APV-210 was therefore tested on CHO cell transfectants stably expressing the following FcγR: FcγRI (CD64), FcγRIIa (CD32a His131), FcγRIIb (CD32b), FcγRIIIa (CD16a Val158 and CD16a Phe158), and FcγRIIIb (CD16b). Untransfected CHO cells were used as negative control. A control human IgG1 molecule was used as a positive control. Different concentrations of ALG.APV-210 or control IgG1 were incubated with the FcγR-expressing cell lines, washed, and labeled with a secondary anti-human IgG reagent. Binding of ALG.APV-210 and the control IgG1 was detected by flow cytometry.

human 5T4 on cells [3] = molecular target: T2, human 5T4 on cells; test: flow cytometry, B16-hu5T4 cells, streptavidin-PE, normalized MFI of 2 pooled experiments
Protocol: (§1) Prior to the FACS staining, all cell lines were characterized for their 5T4 expression levels using a receptor density kit (Quantum Simply Cellular, anti-human IgG, Bangs Laboratories, Inc). Adherent cell lines were cultured according to their supplier's instructions and were harvested from their cell culture flasks using Trypsin/EDTA, counted in R10 medium in a Burker chamber, and diluted in FACS buffer (PBS+0.5% BSA, 0.05% NaN₃) to a concentration of 4×10⁶ cells/mL. 50 μL (0.20×10⁶) of cell solution was added to a 96-well FACS staining plate (Falcon #351190). Cells were incubated for 20 min in 4° C. with 50 μL of the biotinylated ALG.APV-210 (2× final concentration). The antibodies were added in a serial dilution starting at 20 μg/mL titrating down in a 12 step ½ dilution down to 0.010 μg/mL. Following 2× washing with FACS buffer, cells were incubated for 30 min in 4° C. with 100 μL of a secondary antibody (streptavidin-PE, BD #554061, diluted 1/500). […] Cells were analysed for ALG.APV-210 binding using flow cytometry (FACSVerse) by gating on single cells. MFI values (secondary antibody only subtracted) from 1 out of 2 independent experiments, as well as normalized data and EC₅₀-values of pooled data from 2 experiments were determined and plotted using GraphPad Prism 7, non-linear regression log (agonist) vs. normalized response—variable slope.

human 5T4 on cells [4] = molecular target: T2, human 5T4 on cells; test: flow cytometry, BxPC-3 cells, streptavidin-PE, normalized MFI of 2 pooled experiments
Protocol: as §1

human CD137 on cells [5] = molecular target: T1, human CD137 on cells; test: flow cytometry, CHO-K1 cells expressing human CD137, PE anti-human IgG Fc secondary, MFI (median)
Protocol: Binding studies on CHO-K1 cells lines expressing CD137 were performed by standard flow cytometry-based staining procedures. CHO-K1 cells (generated by Alligator) were transfected with human or cynomolgus macaque CD137. A typical experiment would label approximately 100,000 cells per well, in 96-well plates, with a range of 100 nM to 0.05 nM binding molecule in 50 μL of saline buffer with 2% BSA and 2 mM EDTA, for 30 min on ice, followed by washes and incubation with PE-labeled secondary antibody, goat anti-human IgG Fcγ ([…]), for 20 minutes on ice. Signal from bound molecules was detected using a LSR-II™ or a Symphony A3 flow cytometer (BD Biosciences) and analyzed by FlowJo flow cytometry analysis software. Median fluorescence intensity (MFI-median) of bound molecules on live cells was determined after exclusion of doublets cells. Nonlinear regression analysis to determine EC₅₀ values was performed in GraphPad Prism 6® graphing and statistics software.

T1 sequence (Q07011 24-255 limits assumed): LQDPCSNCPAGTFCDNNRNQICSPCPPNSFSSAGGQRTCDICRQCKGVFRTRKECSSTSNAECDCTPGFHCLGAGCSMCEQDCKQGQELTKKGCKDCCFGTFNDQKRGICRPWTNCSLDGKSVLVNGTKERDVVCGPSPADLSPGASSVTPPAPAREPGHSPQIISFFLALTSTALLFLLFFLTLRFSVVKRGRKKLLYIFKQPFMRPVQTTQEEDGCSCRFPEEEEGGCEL
T3 sequence (P08637 17-254 F176V limits assumed): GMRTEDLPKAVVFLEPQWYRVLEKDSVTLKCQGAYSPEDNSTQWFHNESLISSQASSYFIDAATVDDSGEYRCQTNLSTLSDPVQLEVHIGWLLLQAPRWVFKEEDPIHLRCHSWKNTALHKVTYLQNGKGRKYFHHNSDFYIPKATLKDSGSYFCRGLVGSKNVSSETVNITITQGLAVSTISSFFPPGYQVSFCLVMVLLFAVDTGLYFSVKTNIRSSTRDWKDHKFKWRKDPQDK

B1: ALG.APV-210 (bispecific antibody)
chain: EVQLLESGGGLVQPGGSLRLSCAASGFTFSHGSMYWVRQAPGKGLEWVSSISSGSGSTYYADSVKGRFTISHDNSKNTLYLQMNSLRAEDTAVYYCARSSYYGSYYSIDYWGQGTLVTVSSGGGGSGGGGSGGGGSGGGGSDIQMTQSPSSLSASVGDRVTITCRASQSISSYLNWYQQKPGKAPKLLIYAASSLQSGVPSRFSGSGSGTDFTLTISSLQPEDFATYYCQQYYDNLPTFGQGTKLEIKEPKSSDKTHTCPPCPAPEAAGAPSVFLFPPKPKDTLMISRTPEVTCVVVDVSHEDPEVKFNWYVDGVEVHNAKTKPREEQYNSTYRVVSVLTVLHQDWLNGKEYKCAVSNKALPAPIEKTISKAKGQPREPQVYTLPPSRDELTKNQVSLTCLVKGFYPSDIAVEWESNGQPENNYKTTPPVLDSDGSFFLYSKLTVDKSRWQQGNVFSCSVMHEALHNHYTQKSLSLSPGSGGGGSGGGGSGGGGSPSEVQLLESGGGLVQPGGSLRLSCAASGFTFSSYAMSWVRQAPGKCLEWVSAISGSGGSTYYADSVKGRFTISRDNSKNTLYLQMNSLRAEDTAVYYCARYYGGYYSAWMDYWGQGTLVTVSSGGGGSGGGGSGGGGSGGGGSDIQMTQSPSSLSASVGDRVTITCRASQSISSFLNWYQQKPGKAPKLLIYAASSLQSGVPSRFSGSGSGTDFTLTISSLQPEDSATYYCQQTYGYLHTFGCGTKLEIKR
notes: Optimized ADAPTIR scFv-Fc-scFv homodimer with stabilizing disulfide in the 1210 scFv; also called 5T4-CD137 bispecific antibody
In the case of B1, the “EC50 (nM), CD137 reporter assay with CHO/5T4 cells” value (human CD137 on cells [1]) is reported as 0.0092 nM, the “EC50 (nM), CD137 reporter assay with H1975 cells” value (human CD137 on cells [1]) is reported as 0.037 nM and the “EC50 (nM), CD137 reporter assay with MDA.MB-231 cells” value (human CD137 on cells [1]) is reported as 0.054 nM. For the same binder, the “EC50 (nM), CD137 reporter assay with TF-1 cells” value (human CD137 on cells [1]) was 0.063 nM, the “EC50 (nM), IFNγ release of human CD8+ T cells with HCT116 cells” value (human 5T4 on cells [2]) was 0.17 nM and the binding result (FcγRIIIa (CD16a Val158)) was “no binding (tested: 1000 nM)”.

B2: biotinylated ALG.APV-210 (bispecific antibody)
chain: EVQLLESGGGLVQPGGSLRLSCAASGFTFSHGSMYWVRQAPGKGLEWVSSISSGSGSTYYADSVKGRFTISHDNSKNTLYLQMNSLRAEDTAVYYCARSSYYGSYYSIDYWGQGTLVTVSSGGGGSGGGGSGGGGSGGGGSDIQMTQSPSSLSASVGDRVTITCRASQSISSYLNWYQQKPGKAPKLLIYAASSLQSGVPSRFSGSGSGTDFTLTISSLQPEDFATYYCQQYYDNLPTFGQGTKLEIKEPKSSDKTHTCPPCPAPEAAGAPSVFLFPPKPKDTLMISRTPEVTCVVVDVSHEDPEVKFNWYVDGVEVHNAKTKPREEQYNSTYRVVSVLTVLHQDWLNGKEYKCAVSNKALPAPIEKTISKAKGQPREPQVYTLPPSRDELTKNQVSLTCLVKGFYPSDIAVEWESNGQPENNYKTTPPVLDSDGSFFLYSKLTVDKSRWQQGNVFSCSVMHEALHNHYTQKSLSLSPGSGGGGSGGGGSGGGGSPSEVQLLESGGGLVQPGGSLRLSCAASGFTFSSYAMSWVRQAPGKCLEWVSAISGSGGSTYYADSVKGRFTISRDNSKNTLYLQMNSLRAEDTAVYYCARYYGGYYSAWMDYWGQGTLVTVSSGGGGSGGGGSGGGGSGGGGSDIQMTQSPSSLSASVGDRVTITCRASQSISSFLNWYQQKPGKAPKLLIYAASSLQSGVPSRFSGSGSGTDFTLTISSLQPEDSATYYCQQTYGYLHTFGCGTKLEIKR
notes: also called ALG.APV-210 (biotinylated for FACS detection)
In the case of B2, the EC50 (human 5T4 on cells [3]) is reported as 14 nM and the EC50 (human 5T4 on cells [4]) is reported as 20 nM.

B3: ALG.APV-187 (bispecific antibody)
chain: EVQLLESGGGLVQPGGSLRLSCAASGFTFSHGSMYWVRQAPGKGLEWVSSISSGSGSTYYADSVKGRFTISHDNSKNTLYLQMNSLRAEDTAVYYCARSSYYGSYYSIDYWGQGTLVTVSSGGGGSGGGGSGGGGSGGGGSDIQMTQSPSSLSASVGDRVTITCRASQSISSYLNWYQQKPGKAPKLLIYAASSLQSGVPSRFSGSGSGTDFTLTISSLQPEDFATYYCQQYYDNLPTFGQGTKLEIKSSEPKSSDKTHTCPPCPAPEAAGAPSVFLFPPKPKDTLMISRTPEVTCVVVDVSHEDPEVKFNWYVDGVEVHNAKTKPREEQYNSTYRVVSVLTVLHQDWLNGKEYKCAVSNKALPAPIEKTISKAKGQPREPQVYTLPPSRDELTKNQVSLTCLVKGFYPSDIAVEWESNGQPENNYKTTPPVLDSDGSFFLYSKLTVDKSRWQQGNVFSCSVMHEALHNHYTQKSLSLSPGSGGGGSGGGGSGGGGSPSEVQLLESGGGLVQPGGSLRLSCAASGFTFSSYAMSWVRQAPGKCLEWVSAISGSGGSTYYADSVKGRFTISRDNSKNTLYLQMNSLRAEDTAVYYCARYYGGYYSAWMDYWGQGTLVTVSSGGGGSGGGGSGGGGSGGGGSDIQMTQSPSSLSASVGDRVTITCRASQSISSFLNWYQQKPGKAPKLLIYAASSLQSGVPSRFSGSGSGTDFTLTISSLQPEDSATYYCQQTYGYLHTFGCGTKLEIKR
notes: Optimized ADAPTIR scFv-Fc-scFv homodimer with stabilizing disulfide in the 1210 scFv
With B3 the EC50 (human CD137 on cells [5]) was 0.9 nM.
